Biological target: T1, GST-HDC (human histidine decarboxylase, amino acid residues 1-477, fused to GST) (human, UniProt P19113 1-477)
T1 sequence: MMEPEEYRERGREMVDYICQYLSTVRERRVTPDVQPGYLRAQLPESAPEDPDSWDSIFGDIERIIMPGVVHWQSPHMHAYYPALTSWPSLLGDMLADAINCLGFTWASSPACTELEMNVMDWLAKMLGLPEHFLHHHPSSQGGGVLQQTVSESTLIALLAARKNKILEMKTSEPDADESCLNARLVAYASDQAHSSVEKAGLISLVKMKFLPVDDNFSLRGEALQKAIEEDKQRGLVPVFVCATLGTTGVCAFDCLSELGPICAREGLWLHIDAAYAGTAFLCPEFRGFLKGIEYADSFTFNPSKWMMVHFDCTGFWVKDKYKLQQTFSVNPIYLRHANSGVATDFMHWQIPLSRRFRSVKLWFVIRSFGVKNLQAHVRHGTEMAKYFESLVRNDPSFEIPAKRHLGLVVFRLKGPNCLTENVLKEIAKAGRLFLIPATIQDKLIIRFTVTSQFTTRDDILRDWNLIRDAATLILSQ
Assay: cell-based or functional assay

IC50 (inhibition of HDC enzyme activity, standard fluorescence polarization HDC assay): 228 µM
Binder: HF [dipeptide histidine-phenylalanine]
